Results reported in the domain aggregation screens of Martell et al. (2025).

Experiment: soluble fraction after stress (log2 fold change); higher = more stays soluble; pooled small domains, quantitative proteomics
Details: stress: 75 degC
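Also: 20 min heating vs room temperature control held 20 min.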

| Sequence | soluble fraction (log2) |
| --- | --- |
| HMTKINAPMPGNILDVKVNVGDHVEANQLVLMLEAMKMENEIFTPVAGTVVGVHVKKGDSVNSDDLLISI | -0.512 |
| HMTKKEFLDILTESLAGNVPASEIEENIRYYKDYIENGEESEEKALEQLGDPHLIARTIIDSFIA | -0.0899 |
| HMTKLLSALQADKFAKKLANDTNFGSNFARMGESAMDFTNRLVEELQRDEGKVANYMPYLTKLGF | 0.204 |
| HMTKLSPKEKSILHIIGDNAGIKSGQIAKRLDIPSPTVKRILSDLVSQNLIEKFGTGPGTNYSI | -0.0131 |
| HMTKLTTDERSVYLHIQNKPGVSASSIREALGYKKSKLTSILAQLLEVHKIIDTEGTGKSLKYIL | 0.0994 |
| HMTKMTPNRQLVLSVLQSSGKPLSAYELLDRLREQGTQWQPPTAYRALDYLVEQGLAHYLQSIQKYV | -1.73 |
| HMTKNEFLASFQNELQKRHIPDWEDVVSEYEQHFALKQADGFSEEEIAAKLGAPAELAAQFEA | 0.155 |
| HMTKQIILVHVAGKVKKPDVYPLLQGSRVADAIKAAGGAKKGVELNDINLARVLIDGEQVFVGYVPE | -2.2 |
| HMTKQRSAIMNLLAERNTPLTAEEIGEAIAPSYPKLALSTVYRNLELFTNAGLLEKSFFQDGITRYSLTK | -0.976 |
| HMTKRTEPSILQNFDTEIAELIAKNRGISIMDALRIFLASKTHEMLENDEMKLWYFSPLAVFDMWENE | 0.318 |
| HMTKSIDFDFREDGVYIKADKDVTIVDIVTKIDLRRIQSVDLTKIKQMLEIGSLDNWIKIAEPQMEK | -2 |
| HMTKSTLQRQKIIADLIESGNISSQNQLKGLLKKNSLLITQATLSRDLSELGAIKKRQKDGLLVYVLPK | -0.365 |
| HMTKTKADKIDYAIGDSGTEPPTEDKWTDLAHLPLIKAGQFQWTRRTEYYSDGSTAVSYNIAKSE | 0.096 |
| HMTKYKEIVDQLRTNIYEGVFPALSKLPEQTALAKRFQTSRMTIQKALNQLKQEGLISTKRGHGTYVNSAT | -0.74 |
| HMTKYVEGQKYVFEFRDGTITIGTYLRTGEGNIYIKDLSGEDIYIPKIMIAQIHLATDDNVKGDEFWF | -1.26 |
| HMTLDSLEKLSVNDLEKMLVNMPVGYKTIFLLSVIDEYSHKEIGELLGITPETSRSQLFRAIKWIKTNIF | -0.631 |
| HMTLGARTLAAIQSLPKVQQAVFTMKHFEGLKYREISQITGTSEGALKASYHIALEKIKAFLREK | -2.18 |
| HMTLGEHILQYRTARGWSQEDLANALEVSRQSVSKWETDASTPELDKIVRLSEIFQVSIDELVTGKA | -0.316 |
| HMTLGENLQNLRKEAGLSQEQVAQQLFVSRQTVSKWENNLAEPGVENLKALARLYGVTLDRLVGM | -0.223 |
| HMTLKVQLSEISKMVSLSYIAKKYFNKSQSWLSQRINGNTIHNKPAKFTSEELATLQFALKDIGNILNSTV | -2.6 |
| HMTLLVPASKEAILGGLAKIDALKVILKPEKDYSKTHAMTIGTKDEVIAKLDSFLSGMDSEKNQVLIQEYM | 0.456 |
| HMTLSDIGHAVRTRRTELGLSQVQLARLSGLSRQTLVGLENGTLNDLGINRVAQLLAVLGLDAP | -2.02 |
| HMTLSHAINRLRLNANMSQEQFAGLFHVSQQSVQKWESGDSVPELSKLIAIAKHFGISLDALILGN | -2.52 |
| HMTLTEQQITDNYKELRKIINDTFSGLRLDKLNHMYDDLEDRMVVAPASSVEHYHNSKVGGYVEHILHVI | -0.124 |
| HMTLTIEDGYVNAKLKTTVEGLAEDSTIKVDSIEYTNAGKNDILTVFVEDKPYRVEKYKINIAPEDS | 0.139 |
| HMTLVSALDQKTKDSAYYRGTYLAGKISAGKMTKQEAVADIMKNYDGNTAAMKVAAEKAGVSDLLSQTVL | 0.0489 |

| Sequence | soluble fraction (log2) |
| --- | --- |
| HMTMKQVFIETDANVNQKIMLNEKEAHHLFDVLRTSDKETIRVVTNTSQVFLARVQQKPYIYLFDKMTVE | -2.49 |
| HMTMNYFIIENNQQVGPLTLEQLVARNITSDTLVWKEGMEDWQPAWKVDELHTVLDQIRANAEQ | -0.00196 |
| HMTMVVIMNADATQADIEGVISAIEEKGLEAKVMEGAHQKIVGVIGDKTKLAATPLDAMHGVETTVAIS | -0.244 |
| HMTNATVGQIKKLARASILYGNSNLSGNRYTYKANTTVTILQNISSNVDKIRVNVTGRVAYIDNSNYSSST | -3.59 |
| HMTNEQLSKAKSWVQIAVYAAEKLYGAGNGDQKLVYAEEILRKHGIRLDTATLKAMIDAQIKEMEN | -1.01 |
| HMTNEWRKILSNLNGKYQIVMELFYVDGFSTKEIARMLHITEVNVRSRMVRGRKQLEQILTVR | -0.0301 |
| HMTNPPITTEARNLVVEQLKELNALHPEKARELADSYKKEFNVPKVIGHITEARHGEFLALAISKIDES | -0.241 |
| HMTNPPTPADTLFNTVRGVLQSILKSPMKDTEVASALNVSKAQARSWLQRLSDEGLIEKRKNPTAYVL | -0.592 |
| HMTNTYEVIKNDIIFGVLPPLKKLKLLELKKKYITSVSTLREILSRLSGDGFVVSKEQKGFYVSAV | -0.0741 |
| HMTNVNSLIGKKAIVIQDIDNLKSTGQVKIGGEIWSAQSESNDIISKDTEVEIVKIDGVKLIVRLVPV | -0.153 |
| HMTNYNTEKIIPEEQAGKRLDVVLANIFPEFSRSRLKNWIIDGFILVDGKVLRPRDFVTGGELVSIDVIV | -0.123 |
| HMTPADEAGNDLDIGQTVKILRRVSEGQYEVSYRGTTWQARALNAQAAVEPSFAVIGGKEGNILLVHL | -0.202 |
| HMTPDVAEFRERLRQILPGEQIEVRTANDGIVLSGTVSSIARLDAALQLAERYAPSRVSNLMSVG | 0.00274 |
| HMTPEPVREALTFQEGRVFALAAKNMTNAEIAQSLSLKLKTVENYMSIIYQKLALKNRYELLVYARKSGV | -0.576 |
| HMTPESSLHSGLGKILHDALTAKIQLTNFEAKFLSDMQSKYDLNGSFSWLSSKQQTTLEKILAKYGR | -1.98 |
| HMTPFLVRVDISDLNIRTGAGTNYSRTGQYTGKGIFTILEVKSGQGSDAGWGRLKSGAGWISLDYTTR | -2.84 |
| HMTPIELIEKTIELIENERKVQKLQQKELALKADIPFPTYKDFIYKKRASLENILKLFIALRLF | -0.384 |
| HMTPKVAVPSFVGWKFEDVERQLGTMGLIRGKVDNHPSEEYSEGRVIWQSVLGEVEKGKVIDFWVSTGPE | 0.0612 |
| HMTPNATWQDDAQSLLRDLIQHQPVLIQISAAKRLRDQAEQISRITGGDTVTRDHVEAAGHALGMGVT | -0.0233 |
| HMTPPLSKIRNMTPDQQRSSVIEARKKGYNLLQLEGLAKAQGATPADLLVLRNAWAQSEFDQKR | 0.067 |
| HMTPQVALNDTETAIYEKMKQEKQMLLGELRAQFDISNKLWDTSLKTLTKNQLLAVSKEDDLLFVKL | -0.195 |
| HMTPQVTVPDVTGQSFASAKQVLESLGLTVKQQGSTGENDKVIGQNPTSGNADKGATITLTTQDS | 0.536 |
| HMTPSTVQVHVAGAVKNPGVYVLLENARNIDAITAAGGATSEADLERINLSEFIRDGQRVYVPYKGDPI | 0.459 |
| HMTPTITNALEEAEKAVSEVQEGKKEIELTPQGAYIRHLQHAIADRYGISSTSTGRDPKRKVIIY | -0.578 |
| HMTPTNILIVEDEKEIRRFVRTALESEGLRVFESETLQRGLIEAGTRKPDLIILDLGLPDGDGLSYIRDLR | -0.0383 |
| HMTPTRQATVSVAALNVREQPSLQGRRLGKLTQGTTLTVVGPPGEWLKIEYKGETGFVYASYTSLG | -2.01 |

| Sequence | soluble fraction (log2) |
| --- | --- |
| HMTPTVEAAKEEVLRVLASAAPRGLTRTELEAEVSFRRTKLRDTLVELERIGRIDSVGRRGNATTYRLIG | -1.44 |
| HMTPVEVNARGVHVDFSKGGILLEDVVRHLILEALRASEWKRGPAAQLLGISKETLRYRMEKYRLYPP | -2.43 |
| HMTPYEVLVYESLKQKILSGGYAAGEKIPEQSVSEELGVSRSPLRSAIRRLASEGLIEYYPYRGAFVKA | -1.06 |
| HMTQEAMRSLRKSLQNLSSRQQVIFMLRHYEGLALKEIAEHLGLETGTVKAHLHRAVTQLRKDLVE | -1.85 |
| HMTQHDIVPLMLKMVDVLTQFVELDIPFLQQERQTRLAALNAMMGRADVSLAEKYRRIMEAYQVETEYG | -0.0856 |
| HMTQLEVDLFERLITISGVGPRLALAVLSGLEPPDLLRAIQDSDIVRLQGIPGVGKKTAERISLELKDKLS | -1.35 |
| HMTQQYVEWKVYNVTTIKNKYGFRVKLIFQDGSDATQQKGGFTSKKAAEQARTEVIGQLYSNTYVVY | -4.59 |
| HMTQSGLTQWEFNMLRQALIEMLGEKPGSVFELARLLPLEQEKNVQALRFLLDHDDQFHLKDEYISFVKRT | -2.34 |
| HMTQTAVFSKGEQEYYFPLSKVLFFETDGNTINVHTADDIYETRYRLYELEEMLPGSFMRISKSAVVNTNR | 0.00772 |
| HMTRAEVQALLEKQAKDFEVEVVHRGWKKTVQTPEFAGWYSQQPAEIKALAESDDPAVAIRMLDLFSGTK | -0.0943 |
| HMTRETTQAWWEARQTLPSGEQRSAASLSQEASHVRRFYRWAMQQGLTDRNPADWLPDVRQK | -0.603 |
| HMTRIHEEVVNQVHDLVKEGRFKAGDQLPSERELAEIFKVSRTSVREALRALETQGLIISRTGMGNFIAD | -0.249 |
| HMTRILTEDDIVNFLIRQPDTAYIIAKSFNENERKVKELLDLLIKKNKVREEIVNGVVSYAVN | -0.229 |
| HMTRKQTIYEFLRRMKSQHGLDAVYSTEEIANAVGVSRANVSSDLNRLFEEQLVEKLPGWPVKYRA | -0.344 |
| HMTRNEFMTALRKRLSHLPAEEQDAALKYYEEYFDEAESEEEAARQLGSPDAIADRILADYGAG | 0.327 |
| HMTRPLVILEDVKFPSYNEIVSLTLPDGTRRGGQVLEVSGNKAIVQVFEGTSGIDVKDTHIELTKSS | 0.237 |
| HMTRQEFIRKLQEALNGKLDAATIQDHLKFYDDYIIEEMRKGKSEQEVLELLGDPWAIAKTIVDAS | 0.669 |
| HMTRQKEAILALLTDSRGEALSASELLARLTRSGSSIGRTTVYRLLSQLVDDGVVRAWRDASRGITLYELS | -1.1 |
| HMTRQPSAKEHAVLTAVKEGLRRDGRAPTVRALADMTGAASTSTVQRRISALIDLGLLRRTDGTLEVVE | 0.0806 |
| HMTRRVIRAPAAGIMRSNVKLGDLVKEGDVIAWIGEHEIKAPLTGMVRGLLNDGLAVVGGFKIGDI | 0.286 |
| HMTSEPFYNPRRPQPYWTSETDRHTTYADAVRALAREFSETPEWVESNMGETNDLQEIRRNLSRVKSG | 0.125 |
| HMTSESWAEKSRSLAAAGLIVMGRDAQLKIEGLTNLDPLIEAATASSTRLLTGQTIDELLTIVP | -0.551 |
| HMTSEVLTNATIVKMVKAKLSDDIIIDEINNARVNFDVSPEGIKSLTAQNVTEPVIETMKKAVAAQESI | 0.467 |
| HMTSFDVMLKSAGANKLAVVKLVKELTGLGLKEAKDIVDAAPSKVKEGVSKEEAEELQKQLTGAGAEVEL | -0.113 |
| HMTSHYTVLGVKETDTIEMIRTHYRKLILQFHPDKNQHLTEEERKKLEVKVLQIREAYEKIKKEK | -0.433 |
